Test results taken from US9205136B2, “Human aminoacyl-tRNA synthetase polypeptides useful for the regulation of angiogenesis” (THE SCRIPPS RESEARCH INSTITUTE, priority 2000, dated 2015).

Experiments:
[1] = test system: chick CAM; test: Inhibition of VEGF165-induced or mini TyrRS-induced angiogenesis in chick CAM; assay type: in vivo; settings: 3 μg inhibitor
Method: In vivo angiogenesis assays were conducted in chick chorioallantoic membrane (CAM) (Nicolaou et al., 1998, Bioorg. Med. Chem. 6:1185-208). Ten-day-old chick embryos were purchased from Mcintyre Poultry (Lakeside, Calif.) and were incubated at 37° C. and 70% humidity. A small hole was made with a small crafts drill (Dremel, Emerson Electric, Racine, Wis.) directly over the air sac at the end of the egg. The embryos were candled to determine a location to drill a second hole directly over embryonic blood vessels. […] A window was cut in the eggshell over the dropped CAM, exposing the CAM to direct access for experimental manipulation. Cortisone acetate-treated 5 mm filter disks were soaked with a particular protein sample (25 ng of VEGF165 or 250 ng of a given TyrRS molecule) and the filter disks added directly to the CAMs, which were relatively devoid of preexisting blood vessels. The windows were sealed with sterile tape and incubated at 37° C. At 0, 24, and 48 hours following incubation, 3 μg of […] (IP-10) (R & D Systems, Minneapolis, Minn.) was topically applied to the filter disks. After 72 hours, the CAM tissue associated with the filter disk was harvested and quantified using a stereomicroscope. Angiogenesis was assessed as the number of visible blood vessel branch points within the defined area of the filter disks. Each determination shown in FIG. 17 represents the mean from 5-8 embryos.
The angiostatic activity of human full-length TrpRS and human mini TrpRS was also analyzed in in vivo angiogenesis assays conducted in chick CAM. In vivo angiogenesis assays were performed as described in Example 12 with 3 μg of full-length TrpRS or mini TrpRS added to VEGF165-induced or mini TyrRS-induced CAM tissue.

[2] = test system: PMNs; test: PMN chemotaxis assay (ChemoTX microchemotaxis chamber); assay type: cell-based, human; settings: for PMN chemotaxis (PMN migration): sample proteins 1 nM, 45 min
Method: Cells for the various cytokine assays described were prepared from acid citrate dextrose-treated blood of normal healthy volunteers. Human PMNs were isolated from the blood by centrifugation (700×g) over Histopaque 1077 and 1119 (Sigma). […] This procedure was repeated twice. Human MPs were isolated by centrifugation on Histopaque 1077 (Sigma). The mononuclear fraction was obtained, washed twice in Hanks' balanced salt solution, resuspended in RPMI-1640 medium (Sigma) containing 10% heat-inactivated fetal bovine serum (Sigma), plated in tissue culture flasks, and incubated in a 6% CO2 incubator at 37° C. for 1-2 hours (Kumagai et al., 1979, J. Immunol. Methods 29:17-25). Nonadherent cells were removed by washing the flasks three times with Hanks' balanced salt solution, and adherent cells were harvested by incubation with calcium-magnesium free phosphate-buffered saline containing 2 mM EDTA for 15 minutes at 4° C., followed by extensive washing.
PMN chemotaxis assays were performed in a ChemoTX microchemotaxis chamber (described herein). Sample proteins (1 nM) were added to the lower compartment of chemotaxis chambers, and 10^4 PMNs were added to the upper compartment. Chambers were incubated for 45 min, and migrating cells were counted in HPFs. Each determination shown in FIG. 2 represents the average of nine HPF measurements.

[3] = test system: PMNs; test: 125I-human mini TyrRS binding and competition assay on PMNs; settings: for inhibition of 125I-mini TyrRS binding to PMNs by unlabeled ligand: 10 nM 125I-mini TyrRS, 200-fold molar excess of unlabeled ligand, on ice 2 hours
Method: The interaction of human mini TyrRS and PMNs was examined in binding studies using radioiodinated TyrRS molecules (Moser et al., 1993, J. Biol. Chem. 268:7125-28). Custom radioiodination of mini TyrRS with was performed by Research & Diagnostic Antibody (Richmond, Calif.). In the binding assays, 2×10^6 PMNs were first suspended in 120 μl of RPMI-1640 medium containing 20 mM Hepes (pH 7.4) and 10 mg/ml bovine serum albumin. […] Following incubation, cells were separated from unbound radioactivity by centrifugation at approximately 8000×g for 2 minutes through 500 μL, of a 10% sucrose/phosphate-buffered saline (PBS) cushion. The supernatant was aspirated, and the cell sediment was resuspended using EcoLite (ICN Biomedicals, Irvine, Calif.) and analyzed in a scintillation counter.
Following incubation, cells were separated from unbound radioactivity as described herein.

Molecule	inhibition of VEGF165-induced angiogenesis in chick CAM ([1]; 25 ng VEGF165, 72 hours)	inhibition of mini TyrRS-induced angiogenesis in chick CAM ([1]; 250 ng mini TyrRS, 72 hours)	concentration dependence of PMN migration [2]	PMN chemotaxis (PMN migration) [2]	inhibition of 125I-mini TyrRS binding to PMNs by unlabeled ligand [3]	PMN chemotaxis over a concentration series ([2]; 0.1, 1, 10, 100, and 1000 nM)	dissociation constant relative to that for human mini TyrRS ([3]; PMN binding competition) [fold]
IP-10: angiostatic α-chemokine (R & D Systems)	inhibited	inhibited					
EMAP II: human mature endothelial monocyte-activating polypeptide II, C-terminal His6 tag (protein) ANNDAVLKRLEQKGAEADQIIEYLKQQVSLLKEKAILQATLREEKKLRVENAKLKKEIEELKQELIQAEIQNGVKQIPFPSGTPLHANSMVSENVIQSTAVTTVSSGTKEQIKGGTGDEKKAKEKIEKKGEKKEKKQQSIAGSADSKPIDVSRLDLRIGCIITARKHPDADSLYVEEVDVGEIAPRTVVSGLVNHVPLEQMQNRMVILLCNLKPAKMRGVLSQAMVMCASSPEKIEILAPPNGSVPGDRITFDAFPGEPDKELNPKKKIWEQIQPDLHTNDECVATYKGVPFEVKGKGVCRAQTMSNSGIKHHHHHH			bell-shaped concentration dependence	induction of PMN migration	neither the TyrRS carboxyl-terminal domain nor EMAP II inhibited		
S. cerevisiae TyrRS: S. cerevisiae tyrosyl-tRNA synthetase, NYR in place of ELR (protein) MSSAATVDPNEAFGLITKNLQEVLNPQIIKDVLEVQKRHLKLYWGTAPTGRPHCGYFVPMTKLADFLKAGCEVTVLLADLHAFLDNMKAPLEVVNYRAKYYELTIKAILRSINVPIEKLKFVVGSSYQLTPDYTMDIFRLSNIVSQNDAKRAGADVVKQVANPLLSGLIYPLMQALDEQFLDVDCQFGGVDQRKIFVLAEENLPSLGYKKRAHLMNPMVPGLAQGGKMSASDPNSKIDLLEEPKQVKKKINSAFCSPGNVEENGLLSFVQYVIAPIQELKFGTNHFEFFIDRPEKFGGPITYKSFEEMKLAFKEEKLSPPDLKIGVADAINELLEPIRQEFANNKEFQEASEKGYPVATPQKSKKAKKPKNKGTKYPGATKTNEIATKLEETKL				no chemotaxis was observed	inhibited the binding	No significant chemotaxis	≤ 200
